Starred links: 1 amine or outer side, 2 acyl side, 3 side chain; linkers in the order of their positions; H or OH if unused. Positions of bridges follow the written chain, without caps; N, C: chain ends. Non-standard residues stand in square brackets, D forms with d. Yde = (2S)-2-amino-3-[4-[2-(dimethylamino)ethoxy]phenyl]propanoic acid, CN(C)CCOc1ccc(C[C@H](N[*:1])C(=O)[*:2])cc1; NdmK = (2S)-6-amino-2-(dimethylamino)hexanoic acid, CN(C)[C@@H](CCCCN[*:3])C(=O)[*:2]; Phe(4-OMe) = COc1ccc(C[C@H](N[*:1])C(=O)[*:2])cc1; Trp(7-Me) = Cc1cccc2c(C[C@H](N)C(=O)O)c[nH]c12; αMeLys(Me2) = CN(C)CCCC[C@](C)(N)C(=O)O; 2Nal = N[C@@H](Cc1ccc2ccccc2c1)C(=O)O; εLys = N[C@@H](CCCCN[*:1])C(=O)[*:2]; AEF = NCCOc1ccc(C[C@H](N)C(=O)O)cc1; 3Pal = N[C@@H](Cc1cccnc1)C(=O)O; Dad = desamino-aspartamic acid; Lys(Me) = CNCCCC[C@H](N)C(=O)O; αMeL = CC(C)C[C@](C)(N)C(=O)O; Nmapt = not defined here; Thp = NC1(C(=O)O)CCOCC1; Aib = CC(C)(N)C(=O)O; Ahx = NCCCCCC(=O)O; Ava = NCCCCC(=O)O; Sar = CNCC(=O)O
T1: IL-23 receptor on the surface of HEK-Blue IL-23 cells (UniProt Q5VWK5 24-629, limits assumed)
T1 sequence (looked up): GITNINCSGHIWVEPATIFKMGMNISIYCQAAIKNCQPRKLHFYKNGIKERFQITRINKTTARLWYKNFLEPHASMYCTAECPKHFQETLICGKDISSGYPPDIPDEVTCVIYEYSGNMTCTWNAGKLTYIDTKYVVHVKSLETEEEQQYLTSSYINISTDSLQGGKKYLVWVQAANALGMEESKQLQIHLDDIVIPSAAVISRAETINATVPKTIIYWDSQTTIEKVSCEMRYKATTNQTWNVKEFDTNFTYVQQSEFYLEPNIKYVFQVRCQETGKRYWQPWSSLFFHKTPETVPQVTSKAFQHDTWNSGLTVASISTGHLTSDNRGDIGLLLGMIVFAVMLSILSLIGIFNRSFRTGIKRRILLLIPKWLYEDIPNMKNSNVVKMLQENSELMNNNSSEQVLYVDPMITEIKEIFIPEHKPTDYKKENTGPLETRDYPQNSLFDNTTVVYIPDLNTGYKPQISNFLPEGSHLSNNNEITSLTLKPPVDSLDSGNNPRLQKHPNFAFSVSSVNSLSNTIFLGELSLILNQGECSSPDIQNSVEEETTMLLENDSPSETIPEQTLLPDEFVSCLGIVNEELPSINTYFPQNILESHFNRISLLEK

B1: Compound of SEQ ID NO: 27 (peptide)
peptide: [Ava]CNTWQC[Yde][2Nal][αMeL]ENN-NH2
modifications: lactam N-11; disulfide 2-7
SMILES: CC(C)C[C@]1(C)NC(=O)[C@H](Cc2ccc3ccccc3c2)NC(=O)[C@H](Cc2ccc(OCCN(C)C)cc2)NC(=O)[C@@H]2CSSC[C@H](NC(=O)CCCCNC(=O)CC[C@@H](C(=O)N[C@@H](CC(N)=O)C(=O)N[C@@H](CC(N)=O)C(N)=O)NC1=O)C(=O)N[C@@H](CC(N)=O)C(=O)N[C@@H]([C@@H](C)O)C(=O)N[C@@H](Cc1c[nH]c3ccccc13)C(=O)N[C@@H](CCC(N)=O)C(=O)N2
B2: Compound of SEQ ID NO: 2 (peptide)
peptide: [Ahx]CNTWQC[Phe(4-OMe)][2Nal][Aib]ENN-NH2
modifications: lactam N-11; disulfide 2-7
SMILES: COc1ccc(C[C@@H]2NC(=O)[C@@H]3CSSC[C@H](NC(=O)CCCCCNC(=O)CC[C@@H](C(=O)N[C@@H](CC(N)=O)C(=O)N[C@@H](CC(N)=O)C(N)=O)NC(=O)C(C)(C)NC(=O)[C@H](Cc4ccc5ccccc5c4)NC2=O)C(=O)N[C@@H](CC(N)=O)C(=O)N[C@@H]([C@@H](C)O)C(=O)N[C@@H](Cc2c[nH]c4ccccc24)C(=O)N[C@@H](CCC(N)=O)C(=O)N3)cc1
B3: Compound of SEQ ID NO: 20 (peptide)
peptide: [Ava]CNT[Trp(7-Me)]K(Ac)C[Yde][2Nal][Aib]ENH-NH2
modifications: lactam N-11; disulfide 2-7
SMILES: CC(=O)NCCCC[C@@H]1NC(=O)[C@H](Cc2c[nH]c3c(C)cccc23)NC(=O)[C@H]([C@@H](C)O)NC(=O)[C@H](CC(N)=O)NC(=O)[C@@H]2CSSC[C@H](NC1=O)C(=O)N[C@@H](Cc1ccc(OCCN(C)C)cc1)C(=O)N[C@@H](Cc1ccc3ccccc3c1)C(=O)NC(C)(C)C(=O)N[C@H](C(=O)N[C@@H](CC(N)=O)C(=O)N[C@@H](Cc1c[nH]cn1)C(N)=O)CCC(=O)NCCCCC(=O)N2
B4: Compound of SEQ ID NO: 34 (peptide)
peptide: [Nmapt]CKWQC[AEF][2Nal][Thp]EA[dL]-NH2
modifications: lactam N-10; disulfide 2-6; not fully specified (residue 3); printed as Nmapt(§1)-C(§3)(@2)-K[aAc](@3)-W-Q-C(@2)-Yae-Nal-Thp-E(§1)-A-(D-Leu)-NH2; reading uncertain; also: Cys2 carboxyl joined to Lys3 epsilon-NH2 (isopeptide bond)
B5: Compound of SEQ ID NO: 3 (peptide)
peptide: [Ahx]CNTWQC[Phe(4-OMe)][2Nal][Aib]DNN-NH2
modifications: lactam N-11; disulfide 2-7
SMILES: COc1ccc(C[C@@H]2NC(=O)[C@@H]3CSSC[C@H](NC(=O)CCCCCNC(=O)C[C@@H](C(=O)N[C@@H](CC(N)=O)C(=O)N[C@@H](CC(N)=O)C(N)=O)NC(=O)C(C)(C)NC(=O)[C@H](Cc4ccc5ccccc5c4)NC2=O)C(=O)N[C@@H](CC(N)=O)C(=O)N[C@@H]([C@@H](C)O)C(=O)N[C@@H](Cc2c[nH]c4ccccc24)C(=O)N[C@@H](CCC(N)=O)C(=O)N3)cc1
B6: Compound of SEQ ID NO: 32 (peptide)
peptide: [Ava]C[εLys](Ac)WQC[Yde][2Nal][Aib]EAG-NH2
modifications: lactam N-10; disulfide 2-6; also: Cys2 carboxyl bonded to Lys3 epsilon-NH2 (isopeptide), Lys3 alpha-N acetylated
B7: Compound of SEQ ID NO: 24 (peptide)
peptide: [Ava]CNT[Trp(7-Me)]LC[Yde][2Nal][Thp]EN[3Pal][Sar]-NH2
modifications: lactam N-11; disulfide 2-7
SMILES: Cc1cccc2c(C[C@@H]3NC(=O)[C@H]([C@@H](C)O)NC(=O)[C@H](CC(N)=O)NC(=O)[C@@H]4CSSC[C@H](NC(=O)[C@H](CC(C)C)NC3=O)C(=O)N[C@@H](Cc3ccc(OCCN(C)C)cc3)C(=O)N[C@@H](Cc3ccc5ccccc5c3)C(=O)NC3(CCOCC3)C(=O)N[C@H](C(=O)N[C@@H](CC(N)=O)C(=O)N[C@@H](Cc3cccnc3)C(=O)N(C)CC(N)=O)CCC(=O)NCCCCC(=O)N4)c[nH]c12
B8: Compound of SEQ ID NO: 33 (peptide)
peptide: [Ava]C[εLys](Ac)WQC[Yde][2Nal][Thp]EA[dL]-NH2
modifications: lactam N-10; disulfide 2-6; also: Cys2 carboxyl bonded to Lys3 epsilon-NH2 (isopeptide), Lys3 alpha-N acetylated
B9: Compound of SEQ ID NO: 26 (peptide)
peptide: [Ava]CNTWQC[Yde][2Nal][Thp]ENN-NH2
modifications: lactam N-11; disulfide 2-7
SMILES: C[C@@H](O)[C@@H]1NC(=O)[C@H](CC(N)=O)NC(=O)[C@@H]2CSSC[C@H](NC(=O)[C@H](CCC(N)=O)NC(=O)[C@H](Cc3c[nH]c4ccccc34)NC1=O)C(=O)N[C@@H](Cc1ccc(OCCN(C)C)cc1)C(=O)N[C@@H](Cc1ccc3ccccc3c1)C(=O)NC1(CCOCC1)C(=O)N[C@H](C(=O)N[C@@H](CC(N)=O)C(=O)N[C@@H](CC(N)=O)C(N)=O)CCC(=O)NCCCCC(=O)N2
B10: Compound of SEQ ID NO: 30 (peptide)
peptide: [Ava]C[εLys](Ac)WQC[Yde][2Nal][Thp]ENG-NH2
modifications: lactam N-10; disulfide 2-6; also: Cys2 carboxyl bonded to Lys3 epsilon-NH2 (isopeptide), Lys3 alpha-N acetylated
B11: Compound of SEQ ID NO: 22 (peptide)
peptide: [Ava]CNT[Trp(7-Me)]K(Ac)C[Yde][2Nal][αMeL]ENH-NH2
modifications: lactam N-11; disulfide 2-7
SMILES: CC(=O)NCCCC[C@@H]1NC(=O)[C@H](Cc2c[nH]c3c(C)cccc23)NC(=O)[C@H]([C@@H](C)O)NC(=O)[C@H](CC(N)=O)NC(=O)[C@@H]2CSSC[C@H](NC1=O)C(=O)N[C@@H](Cc1ccc(OCCN(C)C)cc1)C(=O)N[C@@H](Cc1ccc3ccccc3c1)C(=O)N[C@@](C)(CC(C)C)C(=O)N[C@H](C(=O)N[C@@H](CC(N)=O)C(=O)N[C@@H](Cc1c[nH]cn1)C(N)=O)CCC(=O)NCCCCC(=O)N2
B12: Compound of SEQ ID NO: 29 (peptide)
peptide: [Ava]C[εLys](Ac)WQC[Yde][2Nal][Aib]ENG-NH2
modifications: lactam N-10; disulfide 2-6; also: Cys2 carboxyl bonded to Lys3 epsilon-NH2 (isopeptide), Lys3 alpha-N acetylated
B13: Compound of SEQ ID NO: 21 (peptide)
peptide: [Ava]CNT[Trp(7-Me)]K(Ac)C[Yde][2Nal][Thp]ENH-NH2
modifications: lactam N-11; disulfide 2-7
SMILES: CC(=O)NCCCC[C@@H]1NC(=O)[C@H](Cc2c[nH]c3c(C)cccc23)NC(=O)[C@H]([C@@H](C)O)NC(=O)[C@H](CC(N)=O)NC(=O)[C@@H]2CSSC[C@H](NC1=O)C(=O)N[C@@H](Cc1ccc(OCCN(C)C)cc1)C(=O)N[C@@H](Cc1ccc3ccccc3c1)C(=O)NC1(CCOCC1)C(=O)N[C@H](C(=O)N[C@@H](CC(N)=O)C(=O)N[C@@H](Cc1c[nH]cn1)C(N)=O)CCC(=O)NCCCCC(=O)N2
B14: Compound of SEQ ID NO: 31 (peptide)
peptide: [Ava]C[εLys](Ac)WQC[Yde][2Nal][αMeL]ENG-NH2
modifications: lactam N-10; disulfide 2-6; also: Cys2 carboxyl bonded to Lys3 epsilon-NH2 (isopeptide), Lys3 alpha-N acetylated

Biological target: T1, IL-23 receptor on the surface of …
Assay: cell-based or functional assay

Binder | pSTAT3 (nM)
B1 | 1.71 nM
[Dad]CNT[Trp(7-Me)]K(Ac)C[Yde][2Nal][αMeL]KNH-NH2 (lactam N-11; disulfide 2-7) [Compound of SEQ ID NO: 23] | 3.32 nM
B2 | 54 nM
B3 | 3.12 nM
[Ava]C[NdmK]WK(Ac)C[Yde][2Nal][αMeLys(Me2)]EN[3Pal][Sar]-NH2 (lactam N-10; disulfide 2-6) [Compound of SEQ ID NO: 36] | 13.9 nM
B4 | 13.3 nM
B5 | 17.2 nM
B6 | 20.5 nM
B7 | 0.59 nM
B8 | 53.8 nM
[Ava]CNTWK(Ac)C[Yde][2Nal][Aib]ENNI-NH2 (lactam N-11; disulfide 2-7; also: places amidation at position 13, §1 lactam bridge; @2 disulfide bridge) [Compound of SEQ ID NO: 38] | 11.9 nM
B9 | 3.37 nM
B10 | 5.41 nM
B11 | 1.37 nM
B12 | 8.16 nM
B13 | 2.67 nM
B14 | 5.23 nM
[Ava]CNTWK(Ac)C[Yde][2Nal][Aib]EN[3Pal]I-NH2 (lactam N-11; disulfide 2-7; also: places amidation at position 13) [Compound of SEQ ID NO: 37] | 2 nM
[Dad]CNTWQC[Yde][2Nal][Aib][Lys(Me)]NN-NH2 (lactam N-11; disulfide 2-7) [Compound of SEQ ID NO: 25] | 39.2 nM

Reference: patent US20260258084A1, “New Peptides as Selective IL-23 Receptor Antagonists” (Sanofi, priority 2022, published 2026)
